Source: patent US20230212549A1 (3B PHARMACEUTICALS, published 2023)
Numbered stars: 1 amine (or outer) side, 2 acyl side, 3 side chain; on linkers, the order of the positions; unused ones are H or OH. Bridge positions count the residues as written; N and C are the ends. Square brackets hold non-standard residues; d marks the D form. Primed or numbered codes have the meaning given here. * marks the point of attachment. Ttds″ = 1,13-diamino-4,7,10-trioxatridecan-succinamic acid spacer, O=C(CCC(=O)[*:2])NCCCOCCOCCOCCCN[*:1]; TBMB(SCH2CH2NH-DOTA) = O=C(O)CN1CCN(CC(=O)O)CCN(CC(=O)NCCSCc2cc(C[*:1])cc(C[*:2])c2)CCN(CC(=O)O)CC1; Ttds = 1,13-diamino-4,7,10-trioxatridecan-succinamic acid, O=C(CCC(=O)[*:2])NCCCOCCOCCOCCCN[*:1]; DOTA = O=C(O)CN1CCN(CC(=O)O)CCN(CC(=O)*)CCN(CC(=O)O)CC1; mXylylene = c1cc(C[*:1])cc(C[*:2])c1; 2Thi = N[C@@H](Cc1cccs1)C(=O)O; Aic = NC1(C(=O)O)Cc2ccccc2C1; Hexanoyl = CCCCCC(=O)*

B1: Ac-Met-[Cys(3MeBn)-Pro-Pro-Thr-Glu-Thi-Cys]-Asp-His-Phe-Arg-Asp-NH2 (peptide)
peptide: Ac-MCPPTE[2Thi]CDHFRD-NH2
modifications: linker 2-8 via mXylylene
SMILES: CSCC[C@H](NC(C)=O)C(=O)N[C@H]1CSCc2cccc(c2)CSC[C@@H](C(=O)N[C@@H](CC(=O)O)C(=O)N[C@@H](Cc2c[nH]cn2)C(=O)N[C@@H](Cc2ccccc2)C(=O)N[C@@H](CCCNC(=N)N)C(=O)N[C@@H](CC(=O)O)C(N)=O)NC(=O)[C@H](Cc2cccs2)NC(=O)[C@H](CCC(=O)O)NC(=O)[C@H]([C@@H](C)O)NC(=O)[C@@H]2CCCN2C(=O)[C@@H]2CCCN2C1=O
notes: also called 3BP-3193
B2: Ac-Met-[cys(3MeBn)-Pro-Pro-Thr-Glu-Phe-Cys]-Asp-His-Phe-Arg-Asp-NH2 (peptide)
peptide: Ac-M[dC]PPTEFCDHFRD-NH2
modifications: linker 2-8 via mXylylene
SMILES: CSCC[C@H](NC(C)=O)C(=O)N[C@@H]1CSCc2cccc(c2)CSC[C@@H](C(=O)N[C@@H](CC(=O)O)C(=O)N[C@@H](Cc2c[nH]cn2)C(=O)N[C@@H](Cc2ccccc2)C(=O)N[C@@H](CCCNC(=N)N)C(=O)N[C@@H](CC(=O)O)C(N)=O)NC(=O)[C@H](Cc2ccccc2)NC(=O)[C@H](CCC(=O)O)NC(=O)[C@H]([C@@H](C)O)NC(=O)[C@@H]2CCCN2C(=O)[C@@H]2CCCN2C1=O
notes: also called 3BP-3175
B3: Hex-[Cys(tMeBn(DOTA-AET))-Pro-Pro-Thr-Gln-Phe-Cys]-asp-NH2 (peptide)
peptide: CPPTQFCD
modifications: N-term Hex; Cys1/Cys7 thioether-bridged by tMeBn carrying DOTA-AET; D-Asp8; C-term amide
notes: also called 3BP-3681
B4: Hex-[Cys(tMeBn(DOTA-AET))-Pro-Pro-Thr-Gln-Phe-Cys]-Asp-OH (peptide)
peptide: Hexanoyl-CPPTQFCD-OH
modifications: linker 1-7 via TBMB(SCH2CH2NH-DOTA)
SMILES: CCCCCC(=O)N[C@H]1CSCc2cc(CSCCNC(=O)CN3CCN(CC(=O)O)CCN(CC(=O)O)CCN(CC(=O)O)CC3)cc(c2)CSC[C@@H](C(=O)N[C@@H](CC(=O)O)C(=O)O)NC(=O)[C@H](Cc2ccccc2)NC(=O)[C@H](CCC(N)=O)NC(=O)[C@H]([C@@H](C)O)NC(=O)[C@@H]2CCCN2C(=O)[C@@H]2CCCN2C1=O
notes: also called 3BP-3665
B5: Ac-Met-[Cys(3MeBn)-Pro-Pro-Thr-Glu-Phe-Cys]-Asp-His-Aic-Arg-Asp-NH2 (peptide)
peptide: Ac-MCPPTEFCDH[Aic]RD-NH2
modifications: linker 2-8 via mXylylene
SMILES: CSCC[C@H](NC(C)=O)C(=O)N[C@H]1CSCc2cccc(c2)CSC[C@@H](C(=O)N[C@@H](CC(=O)O)C(=O)N[C@@H](Cc2c[nH]cn2)C(=O)NC2(C(=O)N[C@@H](CCCNC(=N)N)C(=O)N[C@@H](CC(=O)O)C(N)=O)Cc3ccccc3C2)NC(=O)[C@H](Cc2ccccc2)NC(=O)[C@H](CCC(=O)O)NC(=O)[C@H]([C@@H](C)O)NC(=O)[C@@H]2CCCN2C(=O)[C@@H]2CCCN2C1=O
notes: also called 3BP-3190
B6: DOTA-Ttds-Met-[Cys(3MeBn)-Pro-Pro-Thr-Glu-Phe-Cys]-Asp-His-Phe-Arg-Asp-NH2 (peptide)
peptide: {DOTA}-[Ttds]MCPPTEFCDHFRD-NH2
modifications: linker 3-9 via mXylylene
SMILES: CSCC[C@H](NC(=O)CCC(=O)NCCCOCCOCCOCCCNC(=O)CN1CCN(CC(=O)O)CCN(CC(=O)O)CCN(CC(=O)O)CC1)C(=O)N[C@H]1CSCc2cccc(c2)CSC[C@@H](C(=O)N[C@@H](CC(=O)O)C(=O)N[C@@H](Cc2c[nH]cn2)C(=O)N[C@@H](Cc2ccccc2)C(=O)N[C@@H](CCCNC(=N)N)C(=O)N[C@@H](CC(=O)O)C(N)=O)NC(=O)[C@H](Cc2ccccc2)NC(=O)[C@H](CCC(=O)O)NC(=O)[C@H]([C@@H](C)O)NC(=O)[C@@H]2CCCN2C(=O)[C@@H]2CCCN2C1=O
B7: DOTA-Ttds-Leu-[Cys(3MeBn)-Pro-Pro-Thr-Glu-Phe-Cys]-Asp-His-Phe-Arg-Asp-NH2 (peptide)
peptide: {DOTA}-[Ttds″]LCPPTEFCDHFRD-NH2
modifications: linker 3-9 via mXylylene
SMILES: CC(C)C[C@H](NC(=O)CCC(=O)NCCCOCCOCCOCCCNC(=O)CN1CCN(CC(=O)O)CCN(CC(=O)O)CCN(CC(=O)O)CC1)C(=O)N[C@H]1CSCc2cccc(c2)CSC[C@@H](C(=O)N[C@@H](CC(=O)O)C(=O)N[C@@H](Cc2c[nH]cn2)C(=O)N[C@@H](Cc2ccccc2)C(=O)N[C@@H](CCCNC(=N)N)C(=O)N[C@@H](CC(=O)O)C(N)=O)NC(=O)[C@H](Cc2ccccc2)NC(=O)[C@H](CCC(=O)O)NC(=O)[C@H]([C@@H](C)O)NC(=O)[C@@H]2CCCN2C(=O)[C@@H]2CCCN2C1=O
notes: also called 3BP-3172
B8: Hex-[Cys(tMeBn(InDOTA-AET))-Pro-Pro-Thr-Gln-Phe-AET] (peptide)
peptide: CPPTQFX
modifications: not fully specified; N-term Hex; X7 = AET (2-aminoethanethiol, no carboxyl group); Cys1/AET7 thioether-bridged by tMeBn carrying InDOTA-AET (indium complex)
notes: also called 3BP-3713
B9: Hex-[Cys(3MeBn)-Pro-Pro-Thr-Glu-Phe-Cys]-Asp-His-Phe-Arg-Asp-Ttds-Lys(DOTA)-NH2 (peptide)
peptide: Hexanoyl-CPPTEFCDHFRD[Ttds″]K(DOTA)-NH2
modifications: linker 1-7 via mXylylene
SMILES: CCCCCC(=O)N[C@H]1CSCc2cccc(c2)CSC[C@@H](C(=O)N[C@@H](CC(=O)O)C(=O)N[C@@H](Cc2c[nH]cn2)C(=O)N[C@@H](Cc2ccccc2)C(=O)N[C@@H](CCCNC(=N)N)C(=O)N[C@@H](CC(=O)O)C(=O)NCCCOCCOCCOCCCNC(=O)CCC(=O)N[C@@H](CCCCNC(=O)CN2CCN(CC(=O)O)CCN(CC(=O)O)CCN(CC(=O)O)CC2)C(N)=O)NC(=O)[C@H](Cc2ccccc2)NC(=O)[C@H](CCC(=O)O)NC(=O)[C@H]([C@@H](C)O)NC(=O)[C@@H]2CCCN2C(=O)[C@@H]2CCCN2C1=O

Target: T1, fibroblast activation protein (FAP) on FAP-expressing human WI-38 fibroblasts (human, UniProt Q12884 1-760)
T1 construct: also called human FAP
Test: competitive FACS, WI-38 cells, vs Cy5 tracer m3; A = pIC50 >8.0

Row | Binder | pIC50 Category (FACS)
1 | B1 | > 8 pIC50
2 | B2 | > 8 pIC50
3 | B3 | > 8 pIC50
4 | B4 | > 8 pIC50
5 | B5 | > 8 pIC50
6 | B6 | > 8 pIC50
7 | B7 | > 8 pIC50
8 | B8 | > 8 pIC50
9 | B9 | > 8 pIC50

Target: Recombinant human FAP (R&D systems, #3715-SE) (human, UniProt Q12884 26-760)
Test: cell-based or functional assay

Row | Binder | pIC50 Category (Activity)
10 | B1 | > 8 pIC50
11 | B2 | > 8 pIC50
12 | B3 | > 8 pIC50
13 | B4 | > 8 pIC50
14 | B5 | > 8 pIC50
15 | B6 | > 8 pIC50
16 | B7 | > 8 pIC50
17 | B8 | > 8 pIC50
18 | B9 | > 8 pIC50
